Tests used:
[1] = target: PTP-SL full cytoplasmic region (aa147-549); experiment: SEC; Superdex 200 HR 10/30 analytical column; 10 mM Hepes, 150 mM NaCl, 0.1 mM EDTA, 5 mM DTT, pH 7.5, no SDS; 100 µl sample, 0.5 ml/min; apparent MW against Bio-Rad gel filtration standard
PTP-SL 147-549 (C480S) = experiment: ITC; ERK2 (75-100 µM) injected into PTP-SL (8-10 µM) in the cell, 30 °C; single-site binding model

stoichiometry N [1]	Ka (PTP-SL 147-549 (C480S)) [M⁻¹]	Kd (PTP-SL 147-549 (C480S)) [nM]	dH (PTP-SL 147-549 (C480S)) [kcal/mol]	stoichiometry N (PTP-SL 147-549 (C480S))	Substance
2					PTP-SL full cytoplasmic region (aa147-549) (domain or fragment)
	6.6e+06	150	-21	1.06	ERK2 (from UniProt P63086 1-358) (enzyme)
